doi:10.1101/2024.01.14.575554 (bioRxiv, 2024)

Target: T1, Alexa-488 tagged Hsp60α (Sulfolobus acidocaldarius, UniProt Q9V2T5 1-558, Alexa-488 label (site not stated))
T1 sequence (looked up): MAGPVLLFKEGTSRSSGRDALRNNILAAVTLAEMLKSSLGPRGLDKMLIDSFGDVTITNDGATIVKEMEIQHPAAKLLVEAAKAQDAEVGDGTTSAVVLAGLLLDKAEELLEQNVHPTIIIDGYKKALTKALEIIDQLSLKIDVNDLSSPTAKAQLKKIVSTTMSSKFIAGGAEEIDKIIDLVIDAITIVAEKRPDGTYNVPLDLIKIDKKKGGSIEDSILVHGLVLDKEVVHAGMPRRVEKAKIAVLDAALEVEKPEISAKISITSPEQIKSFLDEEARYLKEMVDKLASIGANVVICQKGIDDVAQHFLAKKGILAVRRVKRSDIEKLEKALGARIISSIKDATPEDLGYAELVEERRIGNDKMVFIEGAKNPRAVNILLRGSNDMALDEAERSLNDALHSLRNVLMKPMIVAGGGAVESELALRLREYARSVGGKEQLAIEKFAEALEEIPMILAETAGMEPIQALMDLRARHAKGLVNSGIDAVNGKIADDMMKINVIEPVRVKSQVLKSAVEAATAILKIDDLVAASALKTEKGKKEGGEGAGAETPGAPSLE
Assay: FRET or BRET

Kd: 167 ± 1.7 nM
B1: Alexa-532 tagged Hsp60β (natural protein, Sulfolobus acidocaldarius, UniProt Q9V2T4 1-553, looked up)
chain: MSATATVATTPEGIPVIILKEGSSRTYGKEALRINIAAVKAVEEALKTTYGPRGMDKMLVDSLGDITITNDGATILDKMDLQHPAAKLLVQIAKGQDEETADGTKTAVIFSGELVKKAEELLYKEIHPTIIVSGYKKAEEMAIKTIEEISTKVSVNDTEILRKVALTSLSSKAVAGAREHLADIVVKAITQVAELRGDKWYVDLDNVQIVKKHGGSINDTQIVYGIIVDKEVVHPGMPKRVENAKIALLDASLEVEKPELDAEIRINDPTQMKKFLDEEENILKEKVDKIAQTGANVVICQKGIDEVAQHYLAKKGILAVRRAKKSDLEKLARATGGRVVSNIDELTSQDLGYATLVEERKIGEDKMVFIEGAKNPKAVSILIRGGLERVVDETERALRDALGTVADVVRDGRAIAGGGAVETEIAKRLRKYAPQVGGKEQLAIEAYANALESLVMILIENGGFDPIELLVKLRSAHENETNKWHGINVYTGQIQDMWSLGVIEPAVVKMNAIKAATEASTLILRIDDLISAGKKSEGKTGEKKESEKGKEED
modifications: Alexa-532 label (site not stated)
